Test results: US20120276102A1 (Pfizer, published 2012)

T1: human IL-2Rβ (human, UniProt P14784 27-239)
T1 sequence (looked up): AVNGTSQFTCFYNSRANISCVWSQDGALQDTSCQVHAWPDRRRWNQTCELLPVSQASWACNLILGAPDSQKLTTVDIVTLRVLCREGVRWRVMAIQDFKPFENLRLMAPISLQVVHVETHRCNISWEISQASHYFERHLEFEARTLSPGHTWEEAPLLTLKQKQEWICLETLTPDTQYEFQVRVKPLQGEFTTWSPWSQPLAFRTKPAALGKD

T2: human gamma (γ) common chain expressed on CHO cells (human, UniProt P31785 23-369)
T2 construct: whole, on cells; Control protein; also called human IL-2R-γ common subunit; human γ-common
T2 sequence (looked up): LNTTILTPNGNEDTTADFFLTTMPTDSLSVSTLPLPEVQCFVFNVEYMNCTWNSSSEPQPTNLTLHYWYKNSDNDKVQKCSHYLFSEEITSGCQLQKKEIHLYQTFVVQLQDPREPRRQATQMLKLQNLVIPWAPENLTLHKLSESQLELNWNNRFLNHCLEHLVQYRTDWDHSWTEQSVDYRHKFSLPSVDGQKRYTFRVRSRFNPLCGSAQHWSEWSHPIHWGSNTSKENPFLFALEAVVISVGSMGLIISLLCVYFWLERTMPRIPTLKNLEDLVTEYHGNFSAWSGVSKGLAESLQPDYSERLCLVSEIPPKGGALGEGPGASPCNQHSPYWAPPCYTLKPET


Tests used:
[1] = biological target: T3, human IL-13-His/FLAG (human, UniProt P35225 35-146, limits assumed); test: SPR, Ab captured
T3 construct: Unrelated His/FLAG-tagged control; also called human IL-13-H/F
T3 sequence (P35225 35-146 limits assumed): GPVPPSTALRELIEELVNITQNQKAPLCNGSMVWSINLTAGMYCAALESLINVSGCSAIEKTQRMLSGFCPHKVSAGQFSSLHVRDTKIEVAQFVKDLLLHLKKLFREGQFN
Description: (§1) The specificity of binding of a subset of transiently expressed anti-IL-21R binding proteins (here antibodies) was tested on a BIACORE™ 2000 surface plasmon resonance instrument. Anti-human-IgG, anti-murine immunoglobulin antibodies, and murine IL-21R-H/F were immobilized onto a research-grade carboxymethyl-dextran chip (CM5) using standard amine coupling. The sensor chip surface was activated with EDC/NHS for 7 min at a flow rate of 20 μl/min. The first flow cell was used as reference surface to correct for bulk refractive index, matrix effects, and nonspecific binding. […] Remaining activated groups were blocked with 1.0 M ethanolamine (pH 8.0). The molecular weights of the anti-human IgG and the anti-murine IgG were both 150 kD, and the molecular weight of the IL-21R monomer was 27 kD.
(§2) Conditioned media containing anti-IL-21R antibodies and antibody controls (murine anti-human IL-2Rβ and murine anti-human IL-4R(R&D Systems, Minneapolis, Minn.); human anti-human IL-13 (Wyeth, Cambridge, Mass.)) were diluted in HBS/EP buffer supplemented with 0.2% bovine serum and injected onto all four flow cells of the BIACORE™ chip, capturing 500-700 (RU) of antibody on the species-appropriate capture antibody. Following a 5 sec washing period, 50 nM solutions of a positive control protein (murine IL-21R-H/F), two human proteins related to IL-21R (human IL-2Rβ and human sIL-4R(R&D Systems)), or an unrelated His/FLAG-tagged protein (human IL-13-H/F) were injected over the captured antibodies on the chip. The association and dissociation phases were monitored for 120 and 180 sec, respectively, followed by two 5 μl injections of glycine (pH 1.5) to regenerate a fully active capturing surface. All binding experiments were done at 25° C. in HBS/EP buffer. Blank and buffer effects were subtracted for each sensorgram using double referencing.

[2] = biological target: T1, human IL-2Rβ; test: SPR, Ab captured
Description: as §1, §2

[3] = biological target: T4, human soluble IL-4R (human, UniProt P24394 26-232, limits assumed); test: SPR, Ab captured
T4 construct: also called human sIL-4R
Description: as §1, §2

[4] = biological target: T5, cynomolgus monkey IL-21R expressed on cells (cynomolgus monkey, UniProt G7Q0S8 41-559); test: cell-based ELISA on CHO cells transiently expressing cynomolgus monkey IL-21R; HRP anti-human IgG, A450
T5 construct: whole, on cells
Description: (§3) FIG. 6(a-l) depicts the binding of 21 anti-IL-21R IgGs to CHO cells transiently expressing human IL-21R (FIGS. 6a-c), rat IL-21R (FIGS. 6d-f), cynomolgus monkey IL-21R (FIGS. 6g-i), and human gamma common chain (FIGS. 6j-1). CHO cells were transiently transfected with IL-21R or the control gamma common chain, and binding was detected with HRP-conjugated anti-human IgG in a cell-based ELISA.
(§4) A subset of binding proteins was tested for binding to rat, cynomolgus monkey, human IL-21R, or human IL-2R-γ common subunit expressed transiently on the surfaces of CHO-PA-Dukx cells. Cells were transfected 48 hr prior to the assay. On the day of the assay, cells were washed gently 5× in PBS containing 0.9 mM CaCl₂ and 0.45 mM MgCl₂ (PBS/CaMg) on an automated plate washer (Titertek, Huntsville, Ala.), and blocked for 1 hr at RT in PBS/CaMg/5% nonfat dry milk. Conditioned media from transiently expressed anti-IL-21R IgGs were serially diluted in blocking buffer and added to the cells in the blocked plates for 1 hr at RT. Cells were washed 5× with PBS/CaMg and then incubated with horseradish peroxidase-conjugated anti-human IgG for 1 hr at RT. Cells were then washed 10× in PBS/CaMg and all of the wash buffer was removed. Cells were incubated with 100 μl TMB until the color reaction reached saturation, stopped with 100 μl of 0.18 M H₂SO₄, and read at A450 on a Perkin Elmer ENVISION™ plate reader.

[5] = biological target: T6, human IL-21R expressed on cells (human, UniProt Q9HBE5 20-538); test: cell-based ELISA on CHO cells transiently expressing human IL-21R; HRP anti-human IgG, A450
T6 construct: also called human IL-21R-BaF3; human IL-21R-TF1
T6 sequence (Q9HBE5 20-538 limits assumed): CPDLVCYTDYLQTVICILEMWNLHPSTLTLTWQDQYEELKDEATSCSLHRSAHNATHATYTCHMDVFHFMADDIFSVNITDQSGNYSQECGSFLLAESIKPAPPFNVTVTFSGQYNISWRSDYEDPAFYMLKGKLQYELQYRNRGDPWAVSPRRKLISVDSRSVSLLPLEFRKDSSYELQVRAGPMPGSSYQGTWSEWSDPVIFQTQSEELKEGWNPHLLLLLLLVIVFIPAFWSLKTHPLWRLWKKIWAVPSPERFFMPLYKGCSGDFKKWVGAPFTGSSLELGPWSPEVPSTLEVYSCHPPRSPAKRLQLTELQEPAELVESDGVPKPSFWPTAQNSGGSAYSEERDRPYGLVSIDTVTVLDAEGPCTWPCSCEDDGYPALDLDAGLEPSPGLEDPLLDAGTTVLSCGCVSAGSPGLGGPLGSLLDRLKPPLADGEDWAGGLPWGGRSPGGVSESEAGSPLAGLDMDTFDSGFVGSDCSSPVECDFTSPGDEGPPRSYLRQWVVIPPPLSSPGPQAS
Description: as §3, §4

[6] = biological target: T6, human IL-21R expressed on cells; test: cell-based or functional assay
[7] = biological target: murine IL-21R expressed on cells (murine, UniProt Q9JHX3 20-529); test: cell-based or functional assay
Chain of murine IL-21R expressed on cells (Q9JHX3 20-529 limits assumed): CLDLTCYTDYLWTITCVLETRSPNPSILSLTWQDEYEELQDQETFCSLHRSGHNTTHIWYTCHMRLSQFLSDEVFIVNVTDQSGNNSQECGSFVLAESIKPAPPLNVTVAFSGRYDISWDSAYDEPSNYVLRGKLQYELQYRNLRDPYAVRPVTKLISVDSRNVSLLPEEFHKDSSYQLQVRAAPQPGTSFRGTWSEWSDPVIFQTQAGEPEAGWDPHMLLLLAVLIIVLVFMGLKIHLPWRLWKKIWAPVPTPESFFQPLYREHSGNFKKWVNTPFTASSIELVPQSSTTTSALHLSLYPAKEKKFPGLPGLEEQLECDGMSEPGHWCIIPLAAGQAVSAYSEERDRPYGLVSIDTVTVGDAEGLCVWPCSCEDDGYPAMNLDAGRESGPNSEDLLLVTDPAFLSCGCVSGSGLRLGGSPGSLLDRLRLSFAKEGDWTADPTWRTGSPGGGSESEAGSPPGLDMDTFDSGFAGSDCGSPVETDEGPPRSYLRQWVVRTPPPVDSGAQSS

[8] = biological target: T7, rat IL-21R expressed on cells (rat); test: cell ELISA, CHO cells
T7 construct: whole, on cells
Description: as §4

[9] = biological target: T6, human IL-21R expressed on cells; test: cell ELISA, CHO cells
Description: as §4

[10] = biological target: T5, cynomolgus monkey IL-21R expressed on …; test: cell ELISA, CHO cells
Description: as §4

[11] = biological target: T2, human gamma (γ) common chain expressed …; test: cell-based ELISA on CHO cells transiently expressing human gamma common chain; HRP anti-human IgG, A450
Description: as §3, §4

[12] = biological target: T2, human gamma (γ) common chain expressed …; test: cell ELISA, CHO cells
Description: as §4

Binder	binding result [1]	binding result [2]	binding result [3]	EC50 (read off the curve) [4] [nM]	EC50 (read off the curve) [5] [nM]	Human IL-21R-BaF3 Proliferation IC50 [6] [nM]	Human IL-21R-TF1 Proliferation IC50 [6] [nM]	Murine IL-21R-BaF3 Proliferation IC50 [7] [nM]	A450 (13 nM Ab) [8] [A450]	A450 (13 nM Ab) [9] [A450]	A450 (13 nM Ab) [10] [A450]	binding result [11]	A450 (13 nM Ab) [12] [A450]
AbD (antibody, IgG1, V domains shown, As for AbA: IgG1/lambda, CDR3 graft, residue limits derived; also called VHP/VL13) VH: QVQLQESGPGLVKPSETLSLTCAVSGYSISSGYYWGWIRQPPGKGLEWIGSISHTGNTYYNPPLKSRVTISVDTSKNQFSLKLSSVTAADTAVYYCARGGGISRPEYWGQGTLVTVSS VL: SSELTQDPAVSVALGQTVRITCQGDSLRTYYASWYQQKPGQAPVLVIYGKHKRPSGIPDRFSGSSSGNTASLTITGAQAEDEADYYCVTRNRYGNPHVLFGGGTQLTVL	no binding (tested: 50 nM)	no binding (tested: 50 nM)	no binding (tested: 50 nM)	~2	~0.9	0.91	2.67	0.01	0.874	1.25	1.38	–	–
AbI (antibody, IgG1, V domains shown, As for AbA: IgG1/lambda, CDR3 graft, residue limits derived; also called VHP/VL24) VH: QVQLQESGPGLVKPSETLSLTCAVSGYSISSGYYWGWIRQPPGKGLEWIGSISHTGNTYYNPPLKSRVTISVDTSKNQFSLKLSSVTAADTAVYYCARGGGISRPEYWGQGTLVTVSS VL: SSELTQDPAVSVALGQTVRITCQGDSLRTYYASWYQQKPGQAPVLVIYGKHKRPSGIPDRFSGSSSGNTASLTITGAQAEDEADYYCIARSNKGNPHVLFGGGTQLTVL	no binding (tested: 50 nM)	no binding (tested: 50 nM)	no binding (tested: 50 nM)	~0.4	~0.9	1	3.8	0.224	1.09	1.24	1.21	no binding (tested: 13 nM)	0.107
AbN (antibody, IgG1, V domains shown, As for AbA: IgG1/lambda, CDR3 graft, residue limits derived; also called VH6/VL24) VH: QVQLQESGPGLVKPSETLSLTCAVSGYSISSGYYWGWIRQPPGKGLEWIGSISHTGNTYYNPPLKSRVTISVDTSKNQFSLKLSSVTAADTAVYYCARFFGFGRPEYWGQGTLVTVSS VL: SSELTQDPAVSVALGQTVRITCQGDSLRTYYASWYQQKPGQAPVLVIYGKHKRPSGIPDRFSGSSSGNTASLTITGAQAEDEADYYCIARSNKGNPHVLFGGGTQLTVL	–	–	–	–	–	0.5	1.59	0.435	0.702	1.21	1.5	–	0.136
AbH (antibody, IgG1, V domains shown, As for AbA: IgG1/lambda, CDR3 graft, residue limits derived; also called VHP/VL19) VH: QVQLQESGPGLVKPSETLSLTCAVSGYSISSGYYWGWIRQPPGKGLEWIGSISHTGNTYYNPPLKSRVTISVDTSKNQFSLKLSSVTAADTAVYYCARGGGISRPEYWGQGTLVTVSS VL: SSELTQDPAVSVALGQTVRITCQGDSLRTYYASWYQQKPGQAPVLVIYGKHKRPSGIPDRFSGSSSGNTASLTITGAQAEDEADYYCVARAVRGNPHVLFGGGTQLTVL	no binding (tested: 50 nM)	no binding (tested: 50 nM)	no binding (tested: 50 nM)	~0.5	~0.4	0.94	3.64	0.327	1.1	1.35	1.32	–	–
AbM (antibody, IgG1, V domains shown, As for AbA: IgG1/lambda, CDR3 graft, residue limits derived; also called VH6/VL13) VH: QVQLQESGPGLVKPSETLSLTCAVSGYSISSGYYWGWIRQPPGKGLEWIGSISHTGNTYYNPPLKSRVTISVDTSKNQFSLKLSSVTAADTAVYYCARFFGFGRPEYWGQGTLVTVSS VL: SSELTQDPAVSVALGQTVRITCQGDSLRTYYASWYQQKPGQAPVLVIYGKHKRPSGIPDRFSGSSSGNTASLTITGAQAEDEADYYCVTRNRYGNPHVLFGGGTQLTVL	–	–	–	~3	–	1.08	4.22	0.125	0.78	1.2	1.45	–	–
AbL (antibody, IgG1, V domains shown, As for AbA: IgG1/lambda, CDR3 graft, residue limits derived; also called VH3/VL13) VH: QVQLQESGPGLVKPSETLSLTCAVSGYSISSGYYWGWIRQPPGKGLEWIGSISHTGNTYYNPPLKSRVTISVDTSKNQFSLKLSSVTAADTAVYYCARFMGFGRPEYWGQGTLVTVSS VL: SSELTQDPAVSVALGQTVRITCQGDSLRTYYASWYQQKPGQAPVLVIYGKHKRPSGIPDRFSGSSSGNTASLTITGAQAEDEADYYCVTRNRYGNPHVLFGGGTQLTVL	no binding (tested: 50 nM)	no binding (tested: 50 nM)	no binding (tested: 50 nM)	~0.9	~1	0.68	4.25	0.227	1.26	1.45	1.51	–	–
